From patent publication US20030211076A1, “Compositions and methods for treatment of proliferative disorders” (priority 2003, published 2003)

Key:
[1] = system: ERK1 and ERK2 MAP kinases; assay: FGF2-stimulated MAP kinase phosphorylation, Western blot; type: cell-based
Protocol: Since activation of MAP kinases by FGF2 is one of the earliest mitogenic signaling events within cells (Maher), the effects of LO on FGF2-stimulated MAP kinase phosphorylation were tested by Western blot analysis using an antibody specific for phospho-extracellular signal-regulated kinases 1 and 2 (ERK1 and ERK2). The amount of total ERK1 and ERK2 MAP kinases within the same cell extracts was determined by using an antibody that recognizes both the phospho- and non-phospho-forms of ERK1 and ERK2. […] Cell extracts were prepared and equal amounts of proteins (25 μg) were analyzed by 10% SDS-PAGE. Immunoblotting was performed using antibodies specific for the active forms of ERK1 and ERK2 (A) and total ERKs (B).

lysyl oxidase (LO) = target: T1, lysyl oxidase (LO) (Bos taurus, UniProt P33072); assay: LO-dependent H2O2 release, horseradish peroxidase-coupled fluorescence assay (substrate potential for LO); type: biochemical; conditions: for substrate of LO (in words): factor as sole substrate, LO-dependent H2O2 release in vitro; for molar ratio of H2O2 released per mole of PDGF-AB at the plateau: 0.11 μM LO, 0.46 μM PDGF-AB
T1 construct: per mature LO molecule (32 kD); from tissue
T1 sequence (P33072 170-418): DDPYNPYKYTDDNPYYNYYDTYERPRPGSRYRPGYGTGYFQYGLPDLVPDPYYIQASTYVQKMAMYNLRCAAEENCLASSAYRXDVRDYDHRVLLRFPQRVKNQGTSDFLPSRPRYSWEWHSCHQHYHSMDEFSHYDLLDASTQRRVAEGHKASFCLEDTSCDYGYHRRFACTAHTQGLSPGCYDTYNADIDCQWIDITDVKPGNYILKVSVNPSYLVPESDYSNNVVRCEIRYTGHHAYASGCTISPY
Protocol: The oxidation of a primary amine substrate by LO yields stoichiometric amounts of the corresponding aldehyde, hydrogen peroxide and ammonia, as shown: RCH2NH2+O2+H2O→RCHO+H2O2+NH3 (Kagan, 1986). To assess the substrate potential of FGF2, LO-dependent H2O2 release was monitored in assays using FGF2 as the sole substrate, using both the optimum temperature for LO activity of 55° C. and the physiological temperature of 37° C. (Trackman et al., 1981).
LO reaction with FGF2 as a substrate was assessed by a horseradish peroxidase-coupled fluorescence assay for H2O2 production. Reaction mixtures contained 0.25 mg of sodium homovanillate(HVA), 40 μg of HRP, and FGF2 at doses as indicated below in 0.05 M sodium borate buffer, pH 8.2, in a final volume of 2 ml. Assays were initiated by the addition of LO to reaction mixtures. H2O2 release was continuously monitored at excitation and emission wavelengths of 315 and 425 nm, respectively, at a constant temperature of 55° C. or 37° C., as specified, in the thermostatted cuvette chamber of an SLM Aminco Bowman Series 2 Luminescence Spectrometer. All activity data were corrected for background rates of H2O2 release determined in complete assay mixtures supplemented with 200 μM BAPN, an irreversible inhibitor of LO. In FIG. 4, solid curves represent the time course of H2O2 release at 55° C. in the reaction of 0.16 μM LO with 0.23 (a), 0.45 (b) and 0.9 (c) μM FGF2, respectively. Dotted curve (d) represents the time course of H2O2 release in the reaction of 0.16 μM LO with 0.9 μM FGF2 at 37° C. The same data were obtained from three separate experiments.
Using the fluorometric assay (Trackman et al., 1981) to monitor LO-dependent H2O2 release in vitro, the substrate potential of other growth factors was also assessed. Major members of the FGF family tested included FGF 1, 4, 5, 6, 7 and EGF (note: All factors are human recombinant forms purchased from R & D Systems, Inc., Minneapolis, Minn.).
A human recombinant disulfide-linked dimer of VEGF165 (MW: 42 kDa)(R & D Systems) as a sole substrate was tested by using the standard in vitro LO catalysis assays as described above for FIG. 4 (Trackman et al., 1981). Curves represent the time course of H2O2 release at 55° C. (a) or 37° C. (b) in the reaction of 0.10 μM LO with 0.45 μM VEGF165. All activity data were corrected for background rates of H2O2 release determined in complete assay mixtures supplemented with the same amounts of LO preincubated with 100 μM BAPN for 15 min at 37° C. The same data were obtained from three separate experiments.
The standard in vitro LO catalysis assays as described above for FIG. 4 (Trackman et al., 1981) using human recombinant PDGF-AB (R & D Systems) as a sole substrate was tested. […] In FIG. 19, curves represent the time course of H2O2 release at 55° C. (a) and 37° C. (b) in the reaction of 0.11 μM LO with 0.46 μM PDGF-AB, respectively. All activity data were corrected for background rates of H2O2 release determined in complete assay mixtures supplemented with the same amounts of LO preincubated with 100 μM BAPN for 15 minutes at 37° C. The same data were obtained from three separate experiments.
To analyze the substrate potential of Tat, the standard in vitro LO catalysis assays as described in FIG. 4 (Trackman et al., 1981) was performed at the optimum temperature of 55° C. and at the physiological temperature of 37° C. A recombinant Tat with 9 lysines in a total of 86 amino acids was used as a sole substrate. FIG. 12A represents a dose and temperature-dependent response. Curves represent the time course of H2O2 release at 55° C. (solid) or 37° C. (dotted) in the reaction of 0.10 μM LO with 0.22 (a and d), 0.43 (b and e) and 0.85 (c and f) μM Tat, respectively. All activity data were corrected for background rates of H2O2 release determined in complete assay mixtures supplemented with the same amounts of LO preincubated with 100 μM BAPN for 15 min at 37° C. […]

[2] = system: growth-arrested Swiss 3T3 cells; assay: FGF2-stimulated cell cycle progression, FACS analysis; type: cell-based; conditions: 5 ng FGF2/ml (0.28 nM FGF2), 20 h
Protocol: The activity of native and LO-oxidized FGF2 on cell cycle progression was evaluated by using fluorescence activated cell sorting (FACS) analysis (Darzynkiewicz et al.). Swiss 3T3 cells were growth-arrested by incubation in 0.3% fetal bovine serum (FBS)/Dulbecco's Modified Eagle's Medium (DMEM) for 3 days. As depicted in FIGS. 6A-6C, the prepared growth-arrested cells were treated for 20 h at 37° C. with or without FGF2, LO, BAPN or their combinations as indicated. After treatment, cells were washed, suspended by treatment with trypsin, washed again and fixed in 0.5% formaldehyde/0.1% Triton X-100/PBS for 15 minutes on ice followed by incubation of samples in 10 μg propidium iodide and 20 units RNAse per ml of PBS for 60 minutes in the dark for DNA staining. The fluorescence intensities of each sample of 10,000 cells in G1, S and G2/M phases were measured by flow cytometry at the FL2 setting of the fluorescence activated cell sorting (FACS) instrument (Becton-Dickinson Corp.). […] LO was presented at 10 nM, FGF2 at 5 ng ml^−1 and BAPN at 100 μM. Data represent the means (+sd) of three separate experiments each assessed with duplicate dishes.

[3] = system: FGF2 nuclear localization in Swiss 3T3 cells; assay: FGF2 nuclear localization, immunochemical staining; type: cell-based; conditions: 0.28 nM FGF2 for 1 h
Protocol: After endocytosis, a fraction of exogenous FGF2 can enter the nucleus of a variety of cell types in a cell cycle-dependent manner (Mason; Rifkin et al.; Prats et al.; Stachowiak et al., 1996; Arese et al.; Baldin et al.). Thus, the possibility that oxidation of FGF2 by LO affects the nuclear localization of this growth factor was tested by using immunochemistry. In FIGS. […]

[4] = system: growth-arrested Swiss 3T3 cells; assay: PDGF-AB-stimulated cell cycle progression, FACS analysis; type: cell-based; conditions: 15 ng PDGF-AB/ml (0.56 nM), 20 h
Protocol: Growth-arrested Swiss 3T3 cells were incubated for 20 h at 37° C. with or without PDGF-AB, LO, BAPN or their combinations as indicated. After incubation, FACS analysis was carried out to characterize the cell cycle progression under different conditions as described in FIG. 6. FIG. 20A represents a dose response of PDGF-AB in cell cycle progression. FIG. 20B represents the LO inhibition of PDGF-AB-stimulated cell cycle progression (the control represents cells treated with 15 ng ml^−1 PDGF-AB in the absence of added LO). FIG. 20C represents the effects of inactivation of LO by BAPN on PDGF-AB-stimulated the cell cycle progression. LO: 15 nM, PDGF-AB: 15 ng ml^−1, BAPN: 100 AM. Data represent the means (±sd) of three separate experiments each assessed with triplicate dishes.

Molecule | MAP kinase activation by FGF2 ([1]; 200 μM genistein) | maximum H2O2 released per mole of FGF2 (lysyl oxidase (LO); 37° C., 0.16 μM LO, 0.9 μM FGF2) | molar ratio H2O2 released per mole of FGF2 at the plateau (lysyl oxidase (LO); 55° C., 0.16 μM LO, 0.23 μM FGF2) | molar ratio H2O2 released per mole of FGF2 at the plateau (lysyl oxidase (LO); 55° C., 0.16 μM LO, 0.45 μM FGF2) | molar ratio H2O2 released per mole of FGF2 at the plateau (lysyl oxidase (LO); 55° C., 0.16 μM LO, 0.9 μM FGF2) | molar ratio H2O2 released per mole of FGF2, mean±standard deviation (lysyl oxidase (LO); 55° C., 0.16 μM LO, mean over 0.23, 0.45 and 0.9 μM FGF2) | substrate of LO (in words) (lysyl oxidase (LO)) | relative number of cells entering the S-M phases versus control (maximum effect) [2] | tyrosine phosphorylation of 42- and 44-kDa ERKs ([1]; 5 ng/ml FGF2, 10 min, versus control) | nuclear FGF2 staining [3] | molar ratio of H2O2 released per mole of PDGF-AB at the plateau (lysyl oxidase (LO); 37° C.) | molar ratio of H2O2 released per mole of PDGF-AB at the plateau (lysyl oxidase (LO); 55° C.) | cells entering the S-M phases versus control (maximum effect) [4]
O=c1c(-c2ccc(O)cc2)coc2cc(O)cc(O)c12 [genistein, reference compound] | inhibited |  |  |  |  |  |  |  |  |  |  |  | 
FGF2: 18 kDa human recombinant FGF2, 14 lysine residues |  | 5.3 moles of H2O2 per mole of FGF2 | 14.1 | 14.6 | 14.2 | 14.3±0.3 | productive substrate for LO | 4.7 fold | markedly increased | significantly increased nuclear staining |  |  | 
PDGF-AB: 27 kDa human recombinant PDGF-AB heterodimer, 21 lysine residues |  |  |  |  |  |  | substrates of LO |  |  |  | 3.0 | 19.5 | 3.3 fold
